Tests used:
[1] = target: T1, human ROR1 (Receptor Tyrosine Kinase-Like Orphan Receptor 1) on the cell surface (human, UniProt Q01973 30-937); assay: flow cytometry on MDA-MB-231 ROR1 low cells (about 17,000 ROR1 per cell), secondary antibody to the IgG1 Fc
T1 construct: whole, on cells; engineered into B16-F10 (high density) and LS174T (low density) cells; also called B16-F10-ROR1-H; LS174T-ROR1-L
Protocol: (§1) Binding of 2A11 (black line), 5A1 (dark grey line) and VHH8 (medium grey line) were tested in TCE format 12A. The commercial ROR1 specific Ab reported to bind the ROR1-Ig domain 2A2 (light grey line), served as the positive control and anti-HEL (dotted black line) served as the negative control. To better visualize binding of each test article to the three cells lines, we plotted MFI on the y-axis for each test article for HEK-293 cells (negative control; FIG. 4I), HEK-293 cells transfected with full length human ROR1 (FIG. 4J) and HEK-293 cells transfected with the ROR1 Ig domain linked to the cell surface via the GPI linker from CD59 (FIG. 4K).
(§2) Adherent target cells were collected by brief TrypLE treatment while suspension cells were directly collected. Collected cells were washed once with PBS by centrifugation at 500×g for 5 minutes at room temperature and added to V-bottom 96-well plate (200,000-300,000 cells per well). To prepared Live/Dead fixable red, one vial of powder was dissolved into 50 uL of DMSO to make stock solution and then diluted 1 uL of stock Live/Dead fixable red in 1 mL of PBS to prepare the working solution. 100 uL of Live/Dead fixable red working buffer was then added to the cell in the V-bottom 96-well plate (200,000-300,000 cells per well) and incubated for 15 minutes at room temperature. After the 15-minute incubation, the cells were washed twice with PBS by centrifugation at 500 g for 5 minutes at room temperature. The cells were then cultured with antibodies at different concentrations in 100 uL of Biolegend staining buffer at 4° C. for 45 minutes. After the 45-minute incubation with primary antibody, the cells were washed with PBS by centrifugation at 500 g for 5 minutes at room temperature. The cells were then cultured with PE-Cy7-conjugated mouse-anti-human IgG secondary antibody in Biolegend staining buffer at 4° C. for 45 minutes. […] The samples were then analyzed on Cytek flow cytometer.

[2] = target: T2, recombinant His tagged human ROR1 (human, UniProt Q01973 30-403, limits assumed); assay: BLI (Octet), FUSE protein loaded on the biosensor, His tagged ROR1 in solution; column 'kdis(1/s)'
T2 construct: Analyte in the BLI assay; also called Human ROR1-His; recombinant ROR1
T2 sequence (Q01973 30-403 limits assumed): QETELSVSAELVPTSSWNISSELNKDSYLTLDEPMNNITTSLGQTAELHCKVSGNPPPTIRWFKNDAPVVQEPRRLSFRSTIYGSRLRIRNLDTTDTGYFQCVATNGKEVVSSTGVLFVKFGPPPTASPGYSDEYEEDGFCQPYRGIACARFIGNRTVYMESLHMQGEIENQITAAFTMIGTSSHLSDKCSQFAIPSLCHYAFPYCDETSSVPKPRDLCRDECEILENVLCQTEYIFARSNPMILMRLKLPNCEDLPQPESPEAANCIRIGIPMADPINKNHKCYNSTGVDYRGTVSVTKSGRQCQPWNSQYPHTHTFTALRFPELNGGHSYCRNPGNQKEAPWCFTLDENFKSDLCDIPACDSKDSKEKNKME
Protocol: (§3) As shown in FIGS. 5A-5D, the binding affinities (KD) of TCEs for ROR1 were assessed. We examined the magnitude by which several TCEs and mutants thereof bind to recombinant ROR1. Kinetic binding graphs were generated via Bio-Layer Interferometry (BLI) using an Octet system. For each TCE, the biosensor tips were coated with FUSE proteins at 15 μg/ml and probed with either recombinant His tagged ROR1 at concentrations ranging from 100 pM to 10 μM. […] The binding affinity (KD), on rate (k-on) and off rate (k-dis), are summarized for ROR1 in FIG. 5D.
(§4) Antibodies were prepared in 1×PBS with 0.02% Tween-20 with the final concentration of 15 ug/ml. Human ROR1-His or CD3e-His protein were also prepared, and serial diluted (4-fold dilution ranging from 400 nM to 0.098 nM) in 1×PBS with 0.02% Tween-20. The biosensors were pre-moistened in 200 uL of 1×PBS with 0.02% Tween-20 for 10 minutes. Meanwhile, Octet BLI system (ForteBio) was prewarmed for 30 minutes and the flow rate was set to 1000 rpm. The biosensors (Anti-hIgG Fc Capture biosensor) were soaked in 250 uL of 1×PBS with 0.02% Tween-20 for 60 seconds at 30° C. to get an initial baseline reading. After the 60-second baseline reading, the biosensors were exposed to testing antibody for 300 seconds at 30° C. for the association between antibody and the biosensors (coupling antibody with biosensor). The biosensors with antibody were then exposed to human ROR1 or CD3e in 250 uL of 1×PBS with 0.02% Tween-20 at 30° C. for 300 seconds for the association reaction between antibody and human ROR1 or CD3e (association curve). After 300-second association reaction between antibody and antigen, the biosensors with antibody and antigen were then exposed to 250 uL of 1×PBS with 0.02% Tween-20 at 30° C. for 300 seconds for the dissociation reaction between antibody and […]. The binding affinity was calculated by the built-in data fitting algorithm.

[3] = target: T1, human ROR1 (Receptor Tyrosine …); assay: flow cytometry on MDA-MB-231 ROR1 normal cells (about 35,000 ROR1 per cell), secondary antibody to the IgG1 Fc
Protocol: as §1, §2

[4] = target: T1, human ROR1 (Receptor Tyrosine …); assay: flow cytometry on MDA-MB-231 ROR1 high cells (about 500,000 ROR1 per cell), secondary antibody to the IgG1 Fc
Protocol: as §1, §2

[5] = target: T3, cynomolgus (NHP) CD3 on cynomolgus pan-T cells (cynomolgus); assay: flow cytometry on cynomolgus pan-T cells
T3 construct: whole, on cells; also called cynomolgus CD3
Protocol: (§5) The CD3-specific Fab binding arm is presumed responsible for the observed binding. A Hen Egg Lysozyme (HEL)-specific antibody was used as the negative isotype control. Binding was measured via flow cytometry at various concentrations of test articles using a fluorescently labeled secondary antibody specific for the Fc domain of IgG1. The apparent affinity calculated for each test subject based on the data is shown under each graph. […] Binding to mouse CD3 was not tested because the anti-CD3 clone, 1F3-3, incorporated into the TCE is a humanized variant of clone SP34, which was derived in mouse and is well described as not binding mouse CD3.
(§6) Adherent target cells were collected by brief TrypLE treatment while suspension cells were directly collected. Collected cells were washed once with PBS by centrifugation at 500×g for 5 minutes at room temperature and added to V-bottom 96-well plate (200,000-300,000 cells per well). To prepared Live/Dead fixable red, one vial of powder was dissolved into 50 uL of DMSO to make stock solution and then diluted 1 uL of stock Live/Dead fixable red in 1 mL of PBS to prepare the working solution. 100 uL of Live/Dead fixable red working buffer was then added to the cell in the V-bottom 96-well plate (200,000-300,000 cells per well) and incubated for 15 minutes at room temperature. […] The samples were then analyzed on Cytek flow cytometer.

[6] = target: T2, recombinant His tagged human ROR1; assay: BLI (Octet), FUSE protein loaded on the biosensor, His tagged ROR1 in solution
Protocol: as §3, §4

[7] = target: T1, human ROR1 (Receptor Tyrosine …); assay: flow cytometry on MDA-MB-231 variants, high ROR1 density; high cell surface density of ROR1
Protocol: as §1, §6

[8] = target: T1, human ROR1 (Receptor Tyrosine …); assay: flow cytometry on MDA-MB-231 variants, low ROR1 density; low cell surface density of ROR1
Protocol: as §1, §6

[9] = target: T1, human ROR1 (Receptor Tyrosine …); assay: flow cytometry on MDA-MB-231 ROR1 super high cells (about 2,000,000 ROR1 per cell), secondary antibody to the IgG1 Fc
Protocol: as §1, §2

human CD3 on T cells [10] = target: T4, human CD3 on T cells (human, UniProt P07766 23-207; P09693 23-182; P04234 22-171; P20963 22-164); assay: flow cytometry on Jurkat T cells, fluorescent secondary antibody to the IgG1 Fc; table row 'Binding EC50 (Kd)'
T4 construct: whole, on cells; also called human CD3 on Jurkat T cells; human CD3 on T cells isolated from human PBMC
T4 sequence (P07766 23-207, chain 1 of 4): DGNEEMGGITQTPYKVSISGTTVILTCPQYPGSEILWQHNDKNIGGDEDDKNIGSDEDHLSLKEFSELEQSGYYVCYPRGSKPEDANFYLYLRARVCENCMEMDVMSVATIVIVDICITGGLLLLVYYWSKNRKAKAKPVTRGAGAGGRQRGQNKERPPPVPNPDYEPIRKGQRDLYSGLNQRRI
T4 sequence (P09693 23-182, chain 2 of 4): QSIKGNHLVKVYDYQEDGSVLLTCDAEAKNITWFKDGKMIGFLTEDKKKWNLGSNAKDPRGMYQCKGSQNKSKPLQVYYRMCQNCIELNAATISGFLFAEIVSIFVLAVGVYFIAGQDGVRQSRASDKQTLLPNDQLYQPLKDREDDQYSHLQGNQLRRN
T4 sequence (P04234 22-171, chain 3 of 4): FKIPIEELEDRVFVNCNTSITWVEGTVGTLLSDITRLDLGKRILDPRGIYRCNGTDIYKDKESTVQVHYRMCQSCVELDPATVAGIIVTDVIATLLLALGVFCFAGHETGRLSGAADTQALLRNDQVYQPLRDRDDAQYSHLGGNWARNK
T4 sequence (P20963 22-164, chain 4 of 4): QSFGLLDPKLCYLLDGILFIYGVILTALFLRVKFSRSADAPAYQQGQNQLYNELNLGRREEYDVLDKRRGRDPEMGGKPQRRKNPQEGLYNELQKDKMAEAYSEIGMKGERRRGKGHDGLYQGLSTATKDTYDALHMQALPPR
Protocol: as §5, §6

[11] = target: T5, mouse ROR1 on mouse 4T1 cells (mouse, UniProt Q9Z139 30-937); assay: flow cytometry on 4T1 cells expressing mouse ROR1
T5 construct: whole, on cells
T5 sequence (Q9Z139 30-937): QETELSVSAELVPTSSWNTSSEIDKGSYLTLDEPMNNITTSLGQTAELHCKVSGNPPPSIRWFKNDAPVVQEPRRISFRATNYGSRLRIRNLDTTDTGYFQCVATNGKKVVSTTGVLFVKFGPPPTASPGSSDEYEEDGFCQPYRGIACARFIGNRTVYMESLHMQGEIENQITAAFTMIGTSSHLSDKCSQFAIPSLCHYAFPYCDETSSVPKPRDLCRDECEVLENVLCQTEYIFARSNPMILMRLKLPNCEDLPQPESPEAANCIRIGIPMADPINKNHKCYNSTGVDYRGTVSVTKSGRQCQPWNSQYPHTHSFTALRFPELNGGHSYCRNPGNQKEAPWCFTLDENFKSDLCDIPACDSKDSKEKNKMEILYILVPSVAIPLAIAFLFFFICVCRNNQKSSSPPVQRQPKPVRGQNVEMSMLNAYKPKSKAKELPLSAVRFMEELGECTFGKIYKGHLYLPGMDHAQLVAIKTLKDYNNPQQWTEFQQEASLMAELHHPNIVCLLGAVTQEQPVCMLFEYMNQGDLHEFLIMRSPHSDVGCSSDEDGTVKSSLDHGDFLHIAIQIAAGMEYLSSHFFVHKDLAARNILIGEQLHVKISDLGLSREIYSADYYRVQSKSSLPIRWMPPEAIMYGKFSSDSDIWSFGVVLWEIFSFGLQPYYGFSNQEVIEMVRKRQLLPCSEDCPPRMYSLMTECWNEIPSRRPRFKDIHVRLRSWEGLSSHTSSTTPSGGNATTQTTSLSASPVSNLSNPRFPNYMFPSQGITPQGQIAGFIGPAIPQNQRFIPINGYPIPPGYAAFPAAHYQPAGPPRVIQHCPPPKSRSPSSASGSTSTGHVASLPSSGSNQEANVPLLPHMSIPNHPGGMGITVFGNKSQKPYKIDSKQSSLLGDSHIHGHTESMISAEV

human CD3 on T cells [12] = target: T4, human CD3 on T cells; assay: flow cytometry on human pan T cells (T cells isolated from human PBMC), fluorescent secondary antibody to the IgG1 Fc; table row 'Binding EC50 (Kd)'
Protocol: as §5, §6

[13] = target: T3, cynomolgus (NHP) CD3 on cynomolgus …; assay: flow cytometry on cynomolgus pan T cells, fluorescent secondary antibody to the IgG1 Fc; table row 'Binding EC50 (Kd)'
Protocol: as §5, §6

T1 sequence (Q01973 30-937): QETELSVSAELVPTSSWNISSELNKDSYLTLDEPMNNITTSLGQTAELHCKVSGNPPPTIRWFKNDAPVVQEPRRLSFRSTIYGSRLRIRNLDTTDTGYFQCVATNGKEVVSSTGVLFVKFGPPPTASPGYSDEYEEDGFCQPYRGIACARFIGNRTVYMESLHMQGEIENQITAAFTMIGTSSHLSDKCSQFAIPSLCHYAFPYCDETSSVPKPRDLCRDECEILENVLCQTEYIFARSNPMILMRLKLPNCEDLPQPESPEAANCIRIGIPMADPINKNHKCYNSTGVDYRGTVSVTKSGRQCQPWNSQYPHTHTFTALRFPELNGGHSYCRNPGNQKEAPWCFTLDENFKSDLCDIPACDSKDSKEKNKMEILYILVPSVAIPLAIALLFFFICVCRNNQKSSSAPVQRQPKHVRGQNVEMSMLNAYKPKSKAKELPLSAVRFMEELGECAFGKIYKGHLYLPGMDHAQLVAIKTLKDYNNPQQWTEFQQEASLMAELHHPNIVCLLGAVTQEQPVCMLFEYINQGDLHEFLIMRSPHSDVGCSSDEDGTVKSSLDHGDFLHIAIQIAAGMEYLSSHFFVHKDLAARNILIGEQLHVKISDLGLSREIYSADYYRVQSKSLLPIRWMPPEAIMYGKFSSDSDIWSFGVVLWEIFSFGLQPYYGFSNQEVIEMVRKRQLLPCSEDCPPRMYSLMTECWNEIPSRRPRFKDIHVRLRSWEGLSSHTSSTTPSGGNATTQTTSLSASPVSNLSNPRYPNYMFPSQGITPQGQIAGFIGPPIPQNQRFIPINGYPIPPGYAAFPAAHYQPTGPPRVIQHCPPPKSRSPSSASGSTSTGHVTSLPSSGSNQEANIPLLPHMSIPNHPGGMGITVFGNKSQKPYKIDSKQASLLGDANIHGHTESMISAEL

B1: FUSE-393 (bispecific antibody, human IgG1, lambda, L234A L235A)
chain: QVQLQESGGGSVQAGGSLKLSCTASGYTNRLKCMGWFRQAPGKEREEIATISTGTGNTYYADSVKGRFTFSQDKVKNTVYLQMNTLKPDDTGMYYCAADVRPDGTTCHYNSGGQGTQVTVSSGGGGSGGGGSGGGGSQVQLQESGGGSVQAGGSLKLSCTASGYTNRLKCMGWFRQAPGKEREEIATISTGTGNTYYADSVKGRFTFSQDKVKNTVYLQMNTLKPDDTGMYYCAADVRPDGTTCHYNSGGQGTQVTVSSEPKSSDKTHTCPPCPAPEAAGGPSVFLFPPKPKDTLMISRTPEVTCVVVDVSHEDPEVKFNWYVDGVEVHNAKTKPREEQYNSTYRVVSVLTVLHQDWLNGKEYKCKVSNKALPAPIEKTISKAKGQPREPQVYTLPPSREEMTKNQVSLSCAVKGFYPSDIAVEWESNGQPENNYKTTPPVLDSDGSFFLVSKLTVDKSRWQQGNVFSCSVMHEALHNRFTQKSLSLSPGK
heavy: EVQLVESGGGLVQPGGSLRLSCAASGFTFSTYAMNWVRQAPGKGLEWVARIRSKYNNYATYYADSVKDRFTISRDDSKNTLYLQMNSLRAEDTAVYYCARHGNFGNSYVSWFAYWGQGTMVTVSSASTKGPSVFPLAPSSKSTSGGTAALGCLVKDYFPEPVTVSWNSGALTSGVHTFPAVLQSSGLYSLSSVVTVPSSSLGTQTYICNVNHKPSNTKVDKKVEPKSCDKTHTCPPCPAPEAAGGPSVFLFPPKPKDTLMISRTPEVTCVVVDVSHEDPEVKFNWYVDGVEVHNAKTKPREEQYNSTYRVVSVLTVLHQDWLNGKEYKCKVSNKALPAPIEKTISKAKGQPREPQVYTLPPSREEMTKNQVSLWCLVKGFYPSDIAVEWESNGQPENNYKTTPPVLDSDGSFFLYSKLTVDKSRWQQGNVFSCSVMHEALHNHYTQKSLSLSPGK
light: QAVVTQEPSLTVSPGGTVTLTCRSSTGAVTTSNYANWVQQKPGQAPRGLIGGTNKRAPGTPARFSGSLLGGKAALTLSGVQPEDEAEYYCALWYSNLWVFGGGTKLTVLGQPKAAPSVTLFPPSSEELQANKATLVCLISDFYPGAVTVAWKADSSPVKAGVETTTPSKQSNNKYAASSYLSLTPEQWKSHRSYSCQVTHEGSTVEKTVAPTECS
notes: Hole chain: 5A1-linker-5A1-Fc; knob chain: anti-CD3 Fab heavy chain-Fc; anti-CD3 light chain; also called format 11A incorporating the 5A1 ROR1-specific VHH
For B1, the EC50 [1] was 288 nM, the koff [2] was 0.000468 s⁻¹ and the EC50 [3] was 281 nM. For the same binder, the EC50 [4] was 26.5 nM, the “fold difference in apparent binding affinity, cynomolgus against human CD3” value [5] was < 2 fold and the Kd [6] was 21.8 nM. For the same binder, the kon [6] was 21500 M⁻¹ s⁻¹, the EC50 [7] was ~15 nM and the EC50 [8] was ~300 nM. For the same binder, the EC50 [9] was 16.3 nM, the EC50 (human CD3 on T cells [10]) was 3.34 nM and the binding result [11] was “no binding”. It also gave an EC50 (human CD3 on T cells [12]) of 4.45 nM and an EC50 [13] of 3.04 nM.

Source: US20250313627A1 (FUSE BIOTHERAPEUTICS, published 2025)
